Here are results for seven molecules from patent US20110274692A1 (published 2011).

B1: Ab001 (antibody, V domains shown)
VH: EVQLLESGGGLVQPGGSLRLSCAASGFTFSSYEMNWVRQAPGKGLEWVSSISSSSSYIYYADSVKGRFTISRDNSKNTLYLQMNSLRAEDTAVYYCARVRWYKDSDAFDIWGQGTLVTVSS
VL: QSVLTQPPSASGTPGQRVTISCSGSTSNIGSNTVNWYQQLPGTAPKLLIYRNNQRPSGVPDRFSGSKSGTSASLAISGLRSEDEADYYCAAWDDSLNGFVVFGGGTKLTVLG
B2: Ab037 (antibody, V domains shown)
VH: EVQLLESGGGLVQPGGSLRLSCAASGFTFSSYEMNWVRQAPGKGLEWVSSISSSSRYADVANSVVGRFTISRDNSKNTLYLQMNSLRAEDTAVYYCARGEWLDHFDYWGQGTLVTVSS
VL: QSVLTQPPSASGTPGQRVTISCSGSSSNIGNSAVNWYQQLPGTAPKLLIYDNNKRPSGVPDRFSGSKSGTSASLAISGLRSEDEADYYCQVWDSGTAVFGGGTKLTVLG
B3: Ab079 (antibody, V domains shown)
VH: QMQLVQSGAEMKKPGASVKVSCKASGYSFSDYGITWVRQAPGQGPEWMGWISGYNGNTNYAQKFQDRVTMTTDTSTSTAYMELRSLKSDDTAVYFCARARGVWMFDNWGQGTLVTVSS
VL: AIRMTQSPSTLSASVGDRVTITCRASQSISTWLAWYQQKPGKAPKLLIYTTSTLESGVPSRFSGSRSGTEFTLTISSLQPDDFATYYCQQYNSYPLTFGGGTKVEIK
B4: Ab053 (antibody, V domains shown)
VH: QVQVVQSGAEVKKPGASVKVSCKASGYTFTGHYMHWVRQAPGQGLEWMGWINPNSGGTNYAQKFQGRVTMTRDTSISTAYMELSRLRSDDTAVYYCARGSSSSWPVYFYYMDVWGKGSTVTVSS
VL: QSALTQPRSVSESPGKTVTISCTGSGGSIGSNYVQWYQQRPGSAPTTVIFEDNRRPSGVPDRFSGSIHSSSNSASLTISGLKTEDEADYYCQSYVGTIVVFGGGTKVTVL
B5: Ab083 (antibody, V domains shown)
VH: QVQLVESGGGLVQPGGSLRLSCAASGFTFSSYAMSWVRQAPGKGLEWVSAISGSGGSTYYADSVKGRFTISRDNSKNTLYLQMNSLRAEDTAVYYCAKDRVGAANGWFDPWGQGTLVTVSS
VL: AIQLTQSPSSLSASVGDRVTISCRASQSITSYLNWYQQKPGKAPNLLIYAASSLQSGVPSRFSGSGSGTDFTLTIAGLQPEDFATYYCQQFDSYPFTFGGGTKLEIK
B6: Ab062 (antibody, V domains shown)
VH: QVQLQQWGAGLLKPSETLSLTCAVYGGSFSGYYWSWIRQPPGKGLEWIGEINHSGSTNYNPSLKSRVTISVDTSKNQFSLKLSSVTAADTAVYYCARGPSGWYIREFDYWGQGTLVTVSS
VL: QSVLTQPPSVSGAPGQRVTISCTGSSSNIGAGYDVHWYQQLPGTAPKLLIYGNSNRPSGVPDRFSGSKSGTSASLAITGLQAEDEADYYCQSYDSSLSGSGVFGGGTKVTVL
B7: Ab080 (antibody, V domains shown)
VH: EVQLVESGGGVVQPGGSLRLSCAASGFTFDDYAMHWVRQAPGKGLEWVSLISWDGGSTYYADSVKGRFTISRDNSKNSLYLQMNSLRAEDTALYYCAKARGVVIIDYWGQGTLVTVSS
VL: EIVLTQSPGTLSLSPGERATLSCRASQSLSSSFLAWYQQKPGQAPRLLIYGAGSRATGVPDRFSGSGYGTDFSLTISRLELEDFAVYYCQQYDRSQITFGQGTRLEIK

In the experiment the target is T1, INS/INSR complex (human, UniProt P06213 28-1382; P01308 25-110, limits assumed).
T1 construct: cells carrying INSR pre-exposed to human insulin (150 nM for CHO-K1 hINSR cells); also called R-L; INSR with insulin
Put plainly: ratio of the value for R to the value for R-L, Table 2.
Regarding B1, the “KD ratios (R against R-L)” value came to 103.

Turning to B2, the “KD ratios (R against R-L)” value worked out at 1.4. With B3 the figure was 19.4; with B4, 1.5. With B5 the figure was 20.2. For B6 the value was 1.1; for B7, 17.6.
